The target of this test is T1, Cdc48-FLAG3 (S. cerevisiae, UniProt P25694 1-835).
T1 construct: Cdc48, S. cerevisiae; the results and the purification methods say it was purified from yeast; also called FLAG-tagged Cdc48; purified Cdc48; source: S. cerevisiae W303, expressed from the endogenous locus; in extract for the co-IP
Kind of test: pull-down; GST, GST-GYF or GST-GAF on glutathione beads, 10-fold molar excess of Cdc48-Flag; 20 mM Tris pH 7.5, 200 mM NaCl, 0.05% Triton X-100, 15% glycerol, 75 ug/mL BSA; 2 h; western blot. Particulars: both partners purified. Background: In western blotting, separated proteins are transferred to a membrane and probed.

T1 sequence (P25694 whole entry): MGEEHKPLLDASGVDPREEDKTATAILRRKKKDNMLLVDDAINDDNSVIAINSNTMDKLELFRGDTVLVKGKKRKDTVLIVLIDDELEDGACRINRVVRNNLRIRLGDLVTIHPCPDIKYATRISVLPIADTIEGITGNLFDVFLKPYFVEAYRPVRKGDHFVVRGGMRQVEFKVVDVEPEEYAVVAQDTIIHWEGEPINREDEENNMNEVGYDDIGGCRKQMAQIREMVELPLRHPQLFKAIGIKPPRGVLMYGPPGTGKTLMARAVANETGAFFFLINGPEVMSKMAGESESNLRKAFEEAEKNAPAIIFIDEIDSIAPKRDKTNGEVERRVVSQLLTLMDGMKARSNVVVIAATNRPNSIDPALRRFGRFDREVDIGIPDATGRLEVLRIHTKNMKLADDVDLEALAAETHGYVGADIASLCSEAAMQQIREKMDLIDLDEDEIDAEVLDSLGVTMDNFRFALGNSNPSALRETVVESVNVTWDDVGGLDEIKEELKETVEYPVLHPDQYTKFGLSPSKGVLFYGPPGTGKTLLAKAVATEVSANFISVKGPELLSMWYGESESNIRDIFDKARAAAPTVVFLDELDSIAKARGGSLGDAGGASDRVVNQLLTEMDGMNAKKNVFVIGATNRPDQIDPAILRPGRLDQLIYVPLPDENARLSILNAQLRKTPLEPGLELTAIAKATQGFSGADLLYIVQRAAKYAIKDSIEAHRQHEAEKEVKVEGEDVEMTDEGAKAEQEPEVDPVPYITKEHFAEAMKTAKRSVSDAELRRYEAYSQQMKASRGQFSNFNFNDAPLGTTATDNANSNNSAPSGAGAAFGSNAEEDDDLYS

B1: GST-Smy2 (205-261), GYF (domain or fragment, S. cerevisiae, UniProt P32909 205-261, looked up)
chain: ESSWRYIDTQGQIHGPFTTQMMSQWYIGGYFASTLQISRLGSTPETLGINDIFITLG
notes: Smy2, S. cerevisiae, amino acids 205-261 holding the GYF motif; Vector pGST 6p-1 / pGEX 6p-1; also called GST-GYF; GST-Smy_(205-261); source: bacterial expression (E. coli), purified on glutathione agarose beads
On to B1, for which the binding result is reported as “binds”.

B2: GST-Smy2 (205-261) Y234A, GAF (domain or fragment, S. cerevisiae, UniProt P32909 205-261, looked up)
chain: ESSWRYIDTQGQIHGPFTTQMMSQWYIGGAFASTLQISRLGSTPETLGINDIFITLG
notes: Smy2, S. cerevisiae, amino acids 205-261 with the GYF motif changed to GAF; also called GST-GAF; mutated (GAF) version; source: bacterial expression (E. coli), purified on glutathione agarose beads
Take B2: the binding result is reported as “binds”.

Source of the values: article PMC9638028, “Yeast Smy2 and its human homologs GIGYF1 and -2 regulate Cdc48/VCP function during transcription stress” (Cell Reports, 2022).
